{"source": "ChEMBL document CHEMBL1150982", "about": "“Formation of the Michaelis complex without involvement of the prosthetic group dehydroalanine of histidine ammonialyase” (Bioorg Med Chem Lett, 1997)", "proteins": {"B1": {"name": "Histidine ammonia-lyase (Homo sapiens), P42357 (protein)", "chain": "MPRYTVHVRGEWLAVPCQDAQLTVGWLGREAVRRYIKNKPDNGGFTSVDDAHFLVRRCKGLGLLDNEDRLEVALENNEFVEVVIEGDAMSPDFIPSQPEGVYLYSKYREPEKYIELDGDRLTTEDLVNLGKGRYKIKLTPTAEKRVQKSREVIDSIIKEKTVVYGITTGFGKFARTVIPINKLQELQVNLVRSHSSGVGKPLSPERCRMLLALRINVLAKGYSGISLETLKQVIEMFNASCLPYVPEKGTVGASGDLAPLSHLALGLVGEGKMWSPKSGWADAKYVLEAHGLKPVILKPKEGLALINGTQMITSLGCEAVERASAIARQADIVAALTLEVLKGTTKAFDTDIHALRPHRGQIEVAFRFRSLLDSDHHPSEIAESHRFCDRVQDAYTLRCCPQVHGVVNDTIAFVKNIITTELNSATDNPMVFANRGETVSGGNFHGEYPAKALDYLAIGIHELAAISERRIERLCNPSLSELPAFLVAEGGLNSGFMIAHCTAAALVSENKALCHPSSVDSLSTSAATEDHVSMGGWAARKALRVIEHVEQVLAIELLAACQGIEFLRPLKTTTPLEKVYDLVRSVVRPWIKDRFMAPDIEAAHRLLLEQKVWEVAAPYIEKYRMEHIPESRPLSPTAFSLQFLHKKSTKIPESEDL"}}, "conditions_in_all_cases": "Pseudomonas putida", "key": {"[1]": {"compound": "NC(Cc1[nH]cnc1[N+](=O)[O-])C(=O)O", "assay": "The kinetic constant with the compound as substrate of wild-type Pseudomonas ATCC 11299b was determined using L-hisdine as competitive inhibitor"}, "[2]": {"substrate": "N[C@@H](Cc1c[nH]cn1)C(=O)O", "assay": "(§1) The kinetic constant with the compound as substrate of S143T mutant enzyme was determined"}, "[3]": {"substrate": "NC(Cc1[nH]cnc1[N+](=O)[O-])C(=O)O", "assay": "as §1"}, "[4]": {"substrate": "N[C@@H](Cc1c[nH]cn1)C(=O)O", "assay": "(§2) The kinetic constant with the compound as substrate of S143G mutant enzyme was determined"}, "[5]": {"substrate": "NC(Cc1[nH]cnc1[N+](=O)[O-])C(=O)O", "assay": "as §2"}, "[6]": {"substrate": "N[C@@H](Cc1c[nH]cn1)C(=O)O", "assay": "(§3) The kinetic constant with the compound as substrate of recombinant wild-type HAL enzyme was determined"}, "[7]": {"substrate": "NC(Cc1[nH]cnc1[N+](=O)[O-])C(=O)O", "assay": "as §3"}, "[8]": {"substrate": "N[C@@H](Cc1c[nH]cn1)C(=O)O", "assay": "(§4) The kinetic constant with the compound as substrate of S143A mutant enzyme was determined"}, "[9]": {"substrate": "NC(Cc1[nH]cnc1[N+](=O)[O-])C(=O)O", "assay": "as §4"}, "[10]": {"compound": "NC(Cc1[nH]cnc1[N+](=O)[O-])C(=O)O", "assay": "The kinetic constant with the compound as substrate of HAL mutant S143G was determined using L-hisdine as competitive inhibitor"}, "[11]": {"compound": "NC(Cc1[nH]cnc1[N+](=O)[O-])C(=O)O", "assay": "The kinetic constant with the compound as substrate of recombinant wild-type Escherichia coli BL21 was determined using L-hisdine as competitive inhibitor"}}}
{"protein": "B1", "values": [{"measurement": "Km", "setting": "[1]", "value": 4, "unit": "mM"}, {"measurement": "Km", "setting": "[2]", "value": 3.1, "unit": "mM"}, {"measurement": "Vmax", "setting": "[2]", "value": 0.00047, "unit": "IU mg-1"}, {"measurement": "Km", "setting": "[3]", "value": 12.8, "unit": "mM"}, {"measurement": "Vmax", "setting": "[3]", "value": 0.87, "unit": "IU mg-1"}, {"measurement": "Km", "setting": "[4]", "value": 5.3, "unit": "mM"}, {"measurement": "Vmax", "setting": "[4]", "value": 0.0047, "unit": "IU mg-1"}, {"measurement": "Km", "setting": "[5]", "value": 4, "unit": "mM"}, {"measurement": "Vmax", "setting": "[5]", "value": 0.52, "unit": "IU mg-1"}, {"measurement": "Km", "setting": "[6]", "value": 5.2, "unit": "mM"}, {"measurement": "Vmax", "setting": "[6]", "value": 25, "unit": "IU mg-1"}, {"measurement": "Km", "setting": "[7]", "value": 7.7, "unit": "mM"}, {"measurement": "Vmax", "setting": "[7]", "value": 0.85, "unit": "IU mg-1"}, {"measurement": "Km", "setting": "[8]", "value": 7.5, "unit": "mM"}, {"measurement": "Vmax", "setting": "[8]", "value": 0.0214, "unit": "IU mg-1"}, {"measurement": "Km", "setting": "[9]", "value": 9.8, "unit": "mM"}, {"measurement": "Vmax", "setting": "[9]", "value": 0.87, "unit": "IU mg-1"}, {"measurement": "Km", "setting": "[10]", "value": 5.3, "unit": "mM"}, {"measurement": "Km", "setting": "[11]", "value": 5.2, "unit": "mM"}]}
